Target: HSA-Fuc-GM1 conjugate (human)
Experiment: SPR (Biacore X), HSA-Fuc-GM1 conjugate amine-coupled to CM5 chip, antibody as analyte, bivalent analyte model

Chain of HSA-Fuc-GM1 conjugate (human) (P02768 25-609): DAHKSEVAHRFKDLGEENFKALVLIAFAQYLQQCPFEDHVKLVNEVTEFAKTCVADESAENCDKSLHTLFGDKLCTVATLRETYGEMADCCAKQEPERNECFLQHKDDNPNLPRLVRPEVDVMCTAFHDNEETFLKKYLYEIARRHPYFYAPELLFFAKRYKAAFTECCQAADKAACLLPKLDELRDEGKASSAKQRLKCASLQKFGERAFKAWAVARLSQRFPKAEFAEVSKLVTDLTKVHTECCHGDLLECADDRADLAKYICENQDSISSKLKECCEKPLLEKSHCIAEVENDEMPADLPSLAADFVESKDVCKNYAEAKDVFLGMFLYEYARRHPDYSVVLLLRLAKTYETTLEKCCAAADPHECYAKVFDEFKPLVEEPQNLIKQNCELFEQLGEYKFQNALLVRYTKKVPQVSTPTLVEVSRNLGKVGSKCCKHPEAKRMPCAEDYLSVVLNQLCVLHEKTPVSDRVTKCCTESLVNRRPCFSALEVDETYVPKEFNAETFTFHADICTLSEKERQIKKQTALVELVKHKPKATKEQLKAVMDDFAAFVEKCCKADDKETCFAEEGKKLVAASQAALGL

Kd: 58 µM | koff: 0.117 s⁻¹ | kon: 2010 M⁻¹ s⁻¹
B1: mAb FL134.33 (antibody, V domains shown)
VH: AVQLQESGPDLVKPSQSLSLTCTVTGYSITSGYSWHWIRQFPGNKLEWVGYIHYRGNTNYNPSLKSRVSITRDTYKNQFFLQLNSLTTEDTATYYCAQEPVRNYAMDFWGQGTSVTVSS
VL: DIVMTQSPDTLSVTPGDRVSLSCRASQSISDDLHWYQQKSHESPRLLIKYVSQSISGIPSRFSGSGSRSDFTLTINSVEPEDVGLYYCQNGHGFPPTFGGGTKLEIK
